From CN117820471A (VAZYME MEDICAL CO LTD; HUNAN NOVAZYME MEDICAL TECH CO LTD, dated 2024) come the findings set out here.

Test [1] addresses T1, GFAP-His重组蛋白 (Homo sapiens (Human), UniProt P14136 1-432).
T1 construct: Recombinant GFAP expressed in 293F cells; also called GFAP-His蛋白; Glial fibrillary acidic protein
Kind of test: fixed capture antibody in the sandwich ELISA that detects GFAP-His. For orientation: An ELISA detects its analyte on a solid surface through an enzyme-linked reagent.

The target in test [2] is T1, GFAP-His重组蛋白. Kind of test: chemiluminescence sandwich assay on GFAP-His (Rabbit anti-GFAP mAb on magnetic beads, test antibody labelled with acridinium ester).

T1 sequence (P14136 other isoform, or with tags, fused parts or gaps limits assumed): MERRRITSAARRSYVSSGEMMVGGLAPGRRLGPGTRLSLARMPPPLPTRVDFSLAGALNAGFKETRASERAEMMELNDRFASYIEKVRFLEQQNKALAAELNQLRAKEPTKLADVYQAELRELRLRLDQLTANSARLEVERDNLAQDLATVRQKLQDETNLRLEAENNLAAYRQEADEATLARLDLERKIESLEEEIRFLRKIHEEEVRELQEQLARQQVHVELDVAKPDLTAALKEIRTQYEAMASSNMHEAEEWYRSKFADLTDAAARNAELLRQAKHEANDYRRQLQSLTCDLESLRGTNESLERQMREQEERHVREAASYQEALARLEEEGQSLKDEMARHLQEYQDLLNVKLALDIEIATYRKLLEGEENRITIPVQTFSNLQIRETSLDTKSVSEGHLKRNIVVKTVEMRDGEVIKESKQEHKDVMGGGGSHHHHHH

B1: Rabbit anti-GFAP mAb (antibody, V domains shown)
VH: QSLEESGGRLVTPGGSLTLTCTVSGIDLTTYTMTWVRQAPGKGLEWIGIISGSGTTYYASWAKGRFTISKTSTTVDLKITSPTTEDTATYFCARDLYGSSDIYNIWGPGTLVTVST
VL: DIVMTQTPASVSAAVGGTVTINCQASESIRNYLSWYQQKPGQPPKLLIFDASTLASGVSSRFKGSGSGTEFTLTISDLECADAATYYCQTYYGVSGFGNAFGGGTEVVVK
notes: Rabbit monoclonal antibody developed earlier, used as the fixed capture antibody (coated on the plate or on magnetic beads) in the sandwich assays; also called 包被抗体; 与之配对的抗体
B1: the binding result with GFAP-His重组蛋白 [1] was “binds”.

B2: Anti-GFAP-rRmab-1 (antibody, V domains shown)
VH: QSLEESGGRLVTPGTPLTLTCTSSGFSLSSYYIQWVRQAPGKGLEWIGIIYASGSTYYASWAKGRFTISKTSATVDLKITSPTQEDTATYFCARNDYDSNLIMSIWGPGTLVTVSS
VL: AYDMTQTPASMEVAVGGTVTINCQASQNIGSSLAWYQQKPGQRPKLLIYRASTLASGVPSRFSGSGSGTEFTLTISGLQCDDAATYYCQQHFSIGAVQNVFGGGTEVVVR
notes: the rabbit constant regions are not; It was labelled with acridinium ester in the chemiluminescence sandwich assay; also called GFAP特异性抗体; 优选抗体
In the case of B2, the binding result with GFAP-His重组蛋白 [2] is on record as “binds”.
